# Data taken from US20080235828A1 (University of Manitoba, priority 2004, published 2008).
# Key:
# [1] = tested on: α-amylase activity; assay: α-amylase activity in bombarded barley aleurones; format: cell-based; conditions: em and ABAP1 bombarded aleurones
# Protocol: A similar experiment was conducted with α-amylase activity to confirm if ABAP1 is involved in another signal transduction pathway. α-amylase activity was measured after ABA, PBI51 and GA were added to the em and ADAPT bombarded barley aleurones.
# [2] = tested on: Harrington barley embryos; assay: Germination and growth of bombarded mature embryos, Harrington line; format: in vivo
# Protocol: (§1) To determine whether or not ABAP1 affects seed germination, mature embryo from two different barley lines (McLeod and Harrington) were bombarded with sense and anti-sense orientation of ABAP1. The embryos were subjected to different ABA treatments and the germination rate, plumule length, radical length and root numbers per embryo were measured for up to four days after bombardment.
# [3] = tested on: McLeod barley embryos; assay: Germination of bombarded mature embryos, McLeod line; format: in vivo; conditions: in the presence of ABAP1
# Protocol: as §1
# [4] = tested on: em promoter; assay: em promoter driven GUS expression in bombarded barley aleurone layers; format: cell-based; conditions: em plus ABAP1 bombardment, without ABA treatment
# Text: The studies examined the effector and reporter constructs, at a 1:1 ratio, introduced to barley aleurone layers by gold particle bombardment. The bombardment consisted of two trials: the first trial was a bombardment of em promoter only; the second trial was a bombardment of em promoters treated with ABAP1.
molecule,measurement,setting,value
"ABAP1: barley ABA-binding protein, 472 amino acids, SEQ ID NO: 10; expressed from effector construct in bombardment tests (protein, Hordeum, vulgare subsp. vulgare) MNSLSGTYIMRGCEQPLIVRFADPKRPRPGESRGGPAFGGPGVSSRSDAALVIRPTANLDEQIGRHMPPDTWRPSSPSSMAPHQFNNFGSDNSMGLMGGPVTSAADNVAFRPQLFHGNGSLSSQTAVPASSHMGINPSLSQGHHLGGPQIPPLQKPTGLQQNFPVQLQNAQQGQLHASQSLGPGSFGQNIPTMQLPGQLPVSQPLTQQNASACALQAPSAVQSNPMQSVPGQQQLPSNLTPQMLQQPVQQMLSQAPQLLLQQQQAAMQSSYQSSQQTIFQLQQQLQLMQQQQHQQQPNLNQQPHTQVPKQQGQPVQSNAPGAPAAMMTTNINAIPQQVNSPAVSLTCNWTEHTSPEGFKYYYNSITRESKWEKPEEYVLYEQQQQQQDHQKLILLQQHQQKLVAQQLQSPPQAQTIPSMQSMQHHPQSQQGHNQMQMKQQDLNYNQLQPTGTIDPSRIQQGIQAAQERSWKS",α-amylase activity,[1],reduction
same,germination rates,[2],did not seem to be affected
same,plumule and radical growth,[2]; in the presence of ABAP1,significantly retarded
same,germination rate,[3],significantly lower
same,GUS activity versus em alone,[4],twice fold
